Numbering of substitutions follows the chain as printed. Numbers in names are those of the source. Blank lines part the entries; values can stand above or below the molecule they belong to.
Tests used:
[1] = target: T1, C. crescentus ParB (WT); ParB-His6 (Caulobacter vibrioides, UniProt B8GW30, E102A); experiment: DRaCALA membrane-spotting; type: binding; settings: labelled compound (5 nM 32P-alpha-CTP with 30 uM unlabelled CTP); 1.5 uM 22 bp parS DNA; 10 mM CaCl2, pH 8.0, room temperature
T1 construct: full length, C-terminal His6 (pET21b), made in E. coli; dimer

[2] = target: T2, C. crescentus ParB (WT); ParB-His6 (Caulobacter vibrioides, UniProt B8GW30); experiment: EnzChek inorganic phosphate release; type: biochemical; settings: 0-1000 uM CTP, 1 uM ParB, 0.5 uM 22 bp parS DNA; Mg2+, pH 8.0, 25 C; rates only in figure
T2 construct: full length, C-terminal His6 (pET21b), made in E. coli; dimer

[3] = target: C. crescentus ParB (L224C I304C), dual-cysteine variant (C. crescentus) (UniProt B8GW30); experiment: cross-linking; BMOE double crosslinking of 8 µM dual-cysteine ParB variant ± 0.5 µM DNA (22 bp parS, circular 3 kb parS or scrambled parS plasmid) ± 1 mM CTP; denaturing polyacrylamide and agarose gels; post-treatment with Benzonase or TEV protease; protein released from gel slices of the HMW smear
CTP = experiment: membrane-spotting assay (DRaCALA); settings: highest protein concentration point (about 12.5 µM on x axis); 5 nM radiolabeled CTP α-P32, 30 µM unlabeled CTP, 1.5 µM 22 bp parS DNA; parent: est. 13; read off a plot
ParB∆CTD-His6 = target: T3, ParB∆CTD-His6 (Caulobacter crescentus, UniProt B8GW30 11-254); experiment: crystal structure; no nucleotide; BLI: 100 mM Tris-HCl pH 8.0, 100 mM NaCl, 1 mM MgCl2, 0.005% Tween 20, 22 °C, 1 µM ParB dimer (5 µM for Q35C); crosslinking: 8 µM ParB, 0.5 µM DNA, ±1 mM CTP; settings: protein: recombinant; tags: C-terminal His6; chain copies: 2; blunt, self-complementary palindrome
T3 sequence: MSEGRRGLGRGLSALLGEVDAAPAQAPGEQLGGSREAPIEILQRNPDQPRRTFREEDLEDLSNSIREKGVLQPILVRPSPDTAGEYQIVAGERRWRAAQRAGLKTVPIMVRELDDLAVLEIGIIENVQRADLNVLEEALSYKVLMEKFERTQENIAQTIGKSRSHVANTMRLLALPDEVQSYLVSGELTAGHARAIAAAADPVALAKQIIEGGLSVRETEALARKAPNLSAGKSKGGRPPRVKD

[4] = target: the molecule itself; experiment: cross-linking; BMOE (1 mM) crosslinking of symmetry-related cysteines; 8 µM single-cysteine ParB variant ± 0.5 µM 22 bp parS DNA ± CTP (0-1000 µM); 10 mM Tris-HCl pH 7.4, 100 mM NaCl, 1 mM MgCl2; 5 min at room temperature; denaturing polyacrylamide gel

T2 sequence (B8GW30 whole entry): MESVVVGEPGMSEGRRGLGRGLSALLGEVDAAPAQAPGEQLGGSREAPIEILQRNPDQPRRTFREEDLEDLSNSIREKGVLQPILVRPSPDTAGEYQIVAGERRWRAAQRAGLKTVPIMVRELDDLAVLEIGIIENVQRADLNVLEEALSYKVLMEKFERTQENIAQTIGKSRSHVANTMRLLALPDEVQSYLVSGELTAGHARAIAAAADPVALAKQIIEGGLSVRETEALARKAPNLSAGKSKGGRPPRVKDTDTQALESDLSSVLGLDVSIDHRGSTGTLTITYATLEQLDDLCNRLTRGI
T1 sequence (B8GW30 whole entry E102A): as the sequence (B8GW30 whole entry) above, with E102A counted along it

Molecule: Nc1ccn([C@@H]2O[C@H](COP(=O)(O)OP(=O)(O)OP(=O)(O)O)[C@@H](O)[C@H]2O)c(=O)n1 [CTP]
- DRaCALA membrane-spotting [1]: ParB (E102A) did not hydrolyze CTP (Figure 6B) but nevertheless bound CTP efficiently
- EnzChek inorganic phosphate release [2]: The CTPase rates were measured at increasing concentration of CTP

- stoichiometry N [3]: 2
Molecule: C. crescentus ParB (L224C I304C), dual-cysteine variant (from UniProt B8GW30 1-304)

- response (CTP): 24%
Molecule: C. crescentus ParB (WT) E102A

- response (CTP): 26%
Molecule: C. crescentus ParB (WT) E135A

- response (CTP): 3.5%
Molecule: C. crescentus ParB (WT) G79S

- response (CTP): 0.7%
Molecule: C. crescentus ParB (WT) N136A

- response (CTP): 10%
Molecule: C. crescentus ParB (WT) Q58A

- response (CTP): 15%
Molecule: C. crescentus ParB (WT) Q82A

- response (CTP): 0.7%
Molecule: C. crescentus ParB (WT) R60A

- response (CTP): 0%
Molecule: C. crescentus ParB (WT) R104A

- response (CTP): 1.5%
Molecule: C. crescentus ParB (WT) R139A

- response (CTP): 0.5%
Molecule: C. crescentus ParB (WT) S74A

B1: 22 bp parS (dsDNA)
DNA 1: GGATGTTTCACGTGAAACATCC
DNA 2: GGATGTTTCACGTGAAACATCC
- binding result (ParB∆CTD-His6): binds

B2: C. crescentus ParB (Q35C) on a cysteine-less ParB (C297S) background (natural protein, UniProt B8GW30 1-304, looked up)
chain: MESVVVGEPGMSEGRRGLGRGLSALLGEVDAAPACAPGEQLGGSREAPIEILQRNPDQPRRTFREEDLEDLSNSIREKGVLQPILVRPSPDTAGEYQIVAGERRWRAAQRAGLKTVPIMVRELDDLAVLEIGIIENVQRADLNVLEEALSYKVLMEKFERTQENIAQTIGKSRSHVANTMRLLALPDEVQSYLVSGELTAGHARAIAAAADPVALAKQIIEGGLSVRETEALARKAPNLSAGKSKGGRPPRVKDTDTQALESDLSSVLGLDVSIDHRGSTGTLTITYATLEQLDDLSNRLTRGI
notes: ParB, Caulobacter crescentus, with the stated substitutions; pET21b construct, so probably made in E. coli; source: purified (HIS-Select Cobalt gravity flow column, PD-10)
- binding result [4]: binds

B3: C. crescentus ParB (I304C) on a cysteine-less ParB (C297S) background (natural protein, UniProt B8GW30 1-304, looked up)
chain: B2 chain with C35Q, I304C
notes: as for B2
- binding result [4]: binds

B4: C. crescentus ParB (L224C) on a cysteine-less ParB (C297S) background (natural protein, UniProt B8GW30 1-304, looked up)
chain: B2 chain with C35Q, L224C
notes: as for B2
- binding result [4]: binds

Reference: paper PMC8367383, “A CTP-dependent gating mechanism enables ParB spreading on DNA” (eLife, 2021)
